To fix the notation:
B1: 11A1H4-IgG1 (antibody, V domains shown)
VH: QVQLVQSGAEVKKPGASVKVSCKASGYTFTNYVIHWVRQAPGQGLEWMGYINPYNDGTKYNQKFKGRVTLTSDTSTTTAYMELSRLRSDDTAVYYCASGGYYTMDYWGQGTLVASTK
VL: DVVMTQSPLSLPVTLGQPASISCRSSQHLEYSNGYSYLHWYQQRPGQSPRLLIYKISNRFSGVPDRFSGSGSGTDFTLKISRVEAEDVGVYYCSQSTHVPYTFGGGTKVEIKR
notes: Humanised version of clone 1-1-A1, IgG1/kappa; also called 1A11H4
B2: 11A1H6-IgG1 (antibody, V domains shown)
VH: B1 VH
VL: B1 VL with N33Q, I56V, F60D
notes: Humanised version of clone 1-1-A1, IgG1/kappa; also called 1A11H6
B3: anti-CD47 clone 1-1-A1_BM IgG1 (antibody, V domains shown)
VH: QVQLQQSGPDLKKPGASVKVSCKVSGYTFTNYVIHWVRQKPGQGLEWMGYINPYNDGTKSNEKFKGKATLTSDKSSTSAYMELSSLTSEDTAVYYCASGGYYTMDYWGQGTSVTVSS
VL: B1 VL with S7T, Q17D, P18Q, R50Q, V88L, V109L
B4: 11A1H10-IgG1 (antibody, V domains shown)
VH: B1 VH with N31G, D56G, K59N, N61A, D89E, A114T, S115V, T116S, K117S
VL: B1 VL with I56V, F60D
notes: Humanised version of clone 1-1-A1, IgG1/kappa; also called 1A11H10
B5: 11A1H11-IgG1 (antibody, V domains shown)
VH: B1 VH with N31G, D56G, K59N, N61A, D89E, A114T, S115V, T116S, K117S
VL: B1 VL with S96G
notes: Humanised version of clone 1-1-A1, IgG1/kappa; also called 1A11H11
B6: 11A1H5-IgG1 (antibody, V domains shown)
VH: B1 VH with N31G, D56G, K59N, N61A, D89E, A114T, S115V, T116S, K117S
VL: B1 VL
notes: Humanised version of clone 1-1-A1, IgG1/kappa; also called 1A11H5
B7: 11A1H9-IgG1 (antibody, V domains shown)
VH: B1 VH with N31G, D56G, K59N, N61A, D89E, A114T, S115V, T116S, K117S
VL: B1 VL with N33T, I56V, F60D
notes: Humanised version of clone 1-1-A1, IgG1/kappa; also called 1A11H9
B8: 11A1H7-IgG1 (antibody, V domains shown)
VH: B1 VH with N31G, D56G, K59N, N61A, D89E, A114T, S115V, T116S, K117S
VL: B1 VL with N33Q, I56V, F60D
notes: Humanised version of clone 1-1-A1, IgG1/kappa; also called 1A11H7
B9: 11A1H3-IgG1 (antibody, V domains shown)
VH: B1 VH with I34M, Y60S, Q62E, K65Q, T77S, R85S, D89E
VL: B1 VL
notes: Humanised version of clone 1-1-A1, IgG1/kappa; also called 1A11H3
B10: anti-CD47 clone 1-1-A1 IgG1 (antibody, V domains shown)
VH: B3 VH with Q1E, K12V, V20M, V24A, R38K, M48I, T91S
VL: B1 VL with S7T, T14S, Q17D, P18Q, Q42L, R44K, R50Q, V88L, Y92F, V109L

Substitutions are numbered along the chain they refer to.

One assay concerns the target T1, untagged human CD47 protein (Sinobiological Inc) (human, UniProt Q08722 19-141).
T1 construct: Bought
Briefly: competition ELISA: inhibition of His-tagged SIRPα binding to coated human CD47.
One may read the IC50 as the concentration needed to halve the response being measured. Read a low IC50 as greater potency. Turning to B1, the “Fold increase in IC50 relative to 1-1-A1_BM” value was determined as 0.32 fold and the half-inhibitory concentration (IC50) turned out to be 0.15 µg/mL.
For B2, the “Fold increase in IC50 relative to 1-1-A1_BM” value is above 200 fold and the IC50 is above 100 µg/mL.
Consider B3, for which the “Fold increase in IC50 relative to 1-1-A1_BM” value turned out to be 1 fold and the concentration for half-maximal inhibition (IC50) turned out to be 0.474 µg/mL.
Regarding B4, the “Fold increase in IC50 relative to 1-1-A1_BM” value is above 200 fold and the IC50 was above 100 µg/mL.
For B5 the same measures were 1.02 fold and 0.483 µg/mL.
Consider B6, for which the “Fold increase in IC50 relative to 1-1-A1_BM” value is 0.42 fold and the IC50 came out at 0.201 µg/mL.
For B7 the same measures were above 200 fold and above 100 µg/mL.
Consider B8, for which the “Fold increase in IC50 relative to 1-1-A1_BM” value is above 200 fold and the IC50 is above 100 µg/mL.

Another assay deals with T2, his-tagged human CD47 (human, UniProt Q08722 19-141).
T2 construct: not shown: his tag
Briefly: BLI (Octet), his-tagged human CD47 loaded on anti-Penta-HIS (HIS1K) sensors, antibody as analyte. As to the method:
(§1) Buffer baseline was obtained for 30 s, and then sensors were loaded with his-tagged human CD47 (1.2 μM) for 120 s.
By koff is commonly meant the first-order rate constant of dissociation. The kon is the rate constant with which the complex forms. For the molecule B3, the koff was 0.000618 s⁻¹ and the on-rate constant (kon) is 59400 M⁻¹ s⁻¹.

The target of a further assay is T3, human CD47 (recombinant protein, construct not stated) (human, UniProt Q08722 19-141).
T3 construct: also called hCD47; human CD47 protein
The assay is described as follows: BLI (BLItz), IgG1 captured on anti-human Fc tips, human CD47 as analyte, 1:1 global fit. On the procedure:
(§2) Biosensors were first hydrated for at least 10 m in assay buffer (phosphate buffered saline) followed by buffer baseline for 60 s and loading of the human IgGs onto the biosensor tips at 25 nM for 120 s. The tips were then washed briefly for 60 s with the assay buffer to remove nonspecifically bound proteins or unbound IgGs for obtaining a second buffer baseline. The association phase of the IgGs with antigens (250 nM to 62.5 nM) was set up at 120 s which was followed by a dissociation phase (assay buffer alone) for 120 s. All the BLITz runs were measured at room temperature at a stirring speed of 1000 rpm and AHC biosensors were regenerated using 10 mM of glycine (pH 2.7) after the assay. Binding affinity between the immobilized antibodies on the AHC sensors and human CD47 were determined by analyzing the binding kinetic curves using the software BLItz Pro. All the sensorgrams were reference subtracted and globally fitted into a 1:1 model which analysed the binding curves at different concentrations of antigens and generated kinetic constants (KD/Ka/Kd) for the globally fitted data. All the binding curves were subjected to step correction which corrects the misalignment between association and dissociation steps and only the curves with R² values greater than 0.9 were used for analysis.
The Kd is the equilibrium constant for the complex coming apart. As to B2, the Kd was 134 nM, the off-rate (koff) turned out to be 0.0144 s⁻¹ and the on-rate (kon) worked out at 108000 M⁻¹ s⁻¹.
For B9 the same measures were 3.39 nM, 0.000904 s⁻¹ and 266000 M⁻¹ s⁻¹.
For B3, in that order: 9.31 nM, 0.00121 s⁻¹ and 130000 M⁻¹ s⁻¹.
Turning to B4, the Kd was found to be 111 nM, the koff was determined as 0.00898 s⁻¹ and the kon was determined as 80900 M⁻¹ s⁻¹.
For B6, in that order: 9.28 nM, 0.0012 s⁻¹ and 129000 M⁻¹ s⁻¹.
For B7 the same measures were 23.3 nM, 0.00635 s⁻¹ and 273000 M⁻¹ s⁻¹.

A further assay has as its target T3, human CD47 (recombinant protein, …). Briefly: BLI (BLItz), IgG captured on anti-human IgG Fc (AHC) tips, human CD47 as analyte, global 1:1 fit. As to the method: as §2, with “Bio-Layer Interferometry (BLI) experiments were performed using a single channel BLItz system (ForteBio, Menlo Park, Calif.) using Anti-human immunoglobulin G (IgG) Fc (AHC) coated biosensor tips (Pall ForteBio, Menlo Park, Calif.) for capturing human IgGs. Biosensors” for “Biosensors”, “30” for “60”, “concentrations ranging from 25-50” for “25”, “(500 nM-0” for “(250 nM to 62.5”
(§3) The anti-CD47 antibody clones in IgG1 format were analyzed for binding affinity to human CD47.
Turning to B10, the koff worked out at 0.00371 s⁻¹ and the kon amounted to 451000 M⁻¹ s⁻¹.
For B3, in that order: 0.00217 s⁻¹ and 134000 M⁻¹ s⁻¹.

The target is the same in another assay. Briefly: ELISA on coated human CD47. On the procedure:
(§4) 96-well plates (Nunc, Denmark) were coated with 1 μg/ml of human CD47 or VISTA protein in PBS, for 1 h at room temperature. Plates were blocked for 1 h at room temperature with 1% BSA in Tris buffer saline containing 0.05% Tween 20 (TBS-T). The test antigen-binding molecules were added at concentrations ranging from to 0.002 μg/ml to 200 μg/ml, and the plates were incubated at room temperature for 1 h. Plates were then washed three times with TBS-T, and were then incubated with a HRP-conjugated secondary antibody for 1 h at room temperature. After washing, plates were developed with colorimetric detection substrate 3,3′,5,5′-tetramethylbenzidine (Turbo-TMB; Pierce, USA). The reaction was stopped after 3.5 min with 2M […], and OD was measured at 450 nm.
In general terms: In an ELISA, binding on a coated surface is turned into a signal by an enzyme label.
Usually EC50 stands for the concentration giving half of the maximal effect. As for B1, the 50% effective concentration (EC50) amounted to 0.00018 µg/mL and the “Fold increase in EC50 relative to 1-1-A1_BM” value came to 0.1 fold.
For B2, in that order: 13.4 µg/mL and 7440 fold.
For the molecule B9, the concentration giving a half-maximal response (EC50) turned out to be 0.00022 µg/mL and the “Fold increase in EC50 relative to 1-1-A1_BM” value is 0.12 fold.
For B3, in that order: 0.0018 µg/mL and 1 fold.
For B4, in that order: 38.1 µg/mL and 21200 fold.
For B5, in that order: 0.0021 µg/mL and 1.17 fold.
In the case of B6, the EC50 stood at 0.00015 µg/mL and the “Fold increase in EC50 relative to 1-1-A1_BM” value was found to be 0.08 fold.
For B7 the same measures were 23.5 µg/mL and 13100 fold.
For the molecule B8, the EC50 was determined as 36.8 µg/mL and the “Fold increase in EC50 relative to 1-1-A1_BM” value came to 20400 fold.

Another assay addresses T2, his-tagged human CD47. Briefly: BLI, his-tagged human CD47 on anti-Penta-HIS (HIS1K) sensors, antibody as analyte. As to the method: as §1
On the technique in general: In BLI a coated tip is dipped into the sample, and binding shifts an interference pattern.
B3 displayed a Kd of 10.4 nM.

Another assay concerns the target human VISTA protein (human, UniProt Q9H7M9 33-194, limits assumed). Briefly: ELISA on coated human VISTA protein. As to the method:
as §4
In a separate ELISA, the antigen-binding molecules were evaluated for binding to human VISTA.
B1: the binding result is “no binding (tested: 0.002 µg/ml to 200 µg/ml)”.
The same measure, in the same setting: the result for B2 reads “no binding (tested: 0.002 µg/ml to 200 µg/ml)”; that for B9, “no binding (tested: 0.002 µg/ml to 200 µg/ml)”; that for B3, “no binding (tested: 0.002 µg/ml to 200 µg/ml)”.
For B4, the binding result was “no binding (tested: 0.002 µg/ml to 200 µg/ml)”.
With B5, the binding result was “no binding (tested: 0.002 µg/ml to 200 µg/ml)”.
On to B6, for which the binding result is recorded as “no binding (tested: 0.002 µg/ml to 200 µg/ml)”.
On the same count and under the same terms, the result for B7 reads “no binding (tested: 0.002 µg/ml to 200 µg/ml)”; that for B8, “no binding (tested: 0.002 µg/ml to 200 µg/ml)”.

Another assay has as its target T3, human CD47 (recombinant protein, …). Briefly: BLI (BLItz), IgG1 captured on anti-human Fc tips, human CD47 as analyte, 1:1 global fit. The source holds these as a separate data set. As to the method: Bio-Layer Interferometry (BLI) experiments were performed using a single channel BLItz system (ForteBio, Menlo Park, Calif.) using Anti-human immunoglobulin G (IgG) Fc (AHC) coated biosensor tips (Pall ForteBio, Menlo Park, Calif.) for capturing human IgGs. Biosensors were first hydrated for at least 10 m in assay buffer (phosphate buffered saline) followed by buffer baseline for 30 s and loading of the human IgGs onto the biosensor tips at concentrations ranging from 25-50 nM for 120 s. The tips were then washed briefly for 30 s with the assay buffer to remove nonspecifically bound proteins or unbound IgGs for obtaining a second buffer baseline. […] All the BLITz runs were measured at room temperature at a stirring speed of 1000 rpm and AHC biosensors were regenerated using 10 mM of glycine (pH 2.7) after the assay. Binding affinity between the immobilized antibodies on the AHC sensors and human CD47 were determined by analyzing the binding kinetic curves using the software BLItz Pro. All the sensorgrams were reference subtracted and globally fitted into a 1:1 model which analysed the binding curves at different concentrations of antigens and generated kinetic constants (KD/Ka/Kd) for the globally fitted data. […]
as §3
As to B10, the Kd is 9 nM.
Same read-out and setting: in the case of B3 it was 16.1 nM.

(Values after US20220298254A1 (HUMMINGBIRD BIOSCIENCE HOLDINGS PTE, published 2022).)
